From the nanobody polyreactivity screen of Harvey et al. (2022)

Assay: yeast display, Sf9 membrane polyspecificity reagent, FACS + sequencing; frameworks hold sequencing errors
Summary of the method: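 Galactose-induced (36–48 hours) yeast carrying a synthetic nanobody display library were exposed to 10% biotinylated, detergent-solubilized Sf9 membrane reagent at 4 °C for 1 hour. FACS followed streptavidin microbead enrichment, using low and high (top ~1%) gates for expression (anti-HA) and reagent binding (streptavidin). Colony PCR, MiSeq 2 × 250 sequencing and CDR-length filtering followed. Labels for polyreactivity reflect the gate of origin.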

| Sequence | polyreactivity (PSR sort gate) |
| --- | --- |
| QVQIVESRGGLVQAGGSLRLSCAASGSIIRYYVMGWYRQAPRKERELVASISYSVGRTYYADSVKGRFTISRDNAKNTVYLQMNSLKPEDSAVYYCASDRYWPYYSAYYTSYRMDYWGQGTQVTVSS | high polyreactivity |
| QVQIVESVGGLDQAGGSLRLSCAASGSKFVYYAIGSYRQAPAKERELVAAIDVSDGGTYYADSVKVRFSISRDNAKNTVYLQMNSLKPEVTAVYYCAADQGIDVPFICYDYWGQGTQVTVSS | high polyreactivity |
| QVQIVESVGGLFQAGGTLRLICAASGLTFRSYTMGWYRQAPGKERELVAAISSGGSTYYADSVKGRFTISRDNAKNTVYLQMNSLKPEDTAVYYCAARAPWPKWGYYYWGQGTQVTVSS | high polyreactivity |
| QVQIVESWGGLVQAGGSLRLSCDASGSIFTNANGWYRQAPGKERELVAAISSSGGSTYYADSVKGRFTISRDNAKNTVYLQMNSLKPEDTAVYYCAADHYGGRDYWGQGTQVTVSS | low polyreactivity |
| QVQLADSGGGLVQAGGSLRLICAASGTFGSNAMGWYIQAPGKERELVAAINSGGTTKYADSVKGRFTISRDNAKNTVYLQMNRLKPEDSALYYCNAREGVFSYTVAHDYWGQGTQVTVSS | low polyreactivity |
| QVQLAESGGCLVQAGGTLRLSCAASGSTSAKNVMGWYRQPPGKERELVAAISRSGGRTYYADSVKGRFTISRDNAKNTVFLQMNSLKPEVSAVYYCANDYGGYYSRYDYWGQGTQVTVSS | high polyreactivity |
| QVQLAESGGGFVQAGGTLRLTCAASGSIFTSNAMGWFRQAPGKERELVAPSSWRGTSTYYADSVKGRYTISRDNAKTTVYLQMNSLKPVDTAVYYCAKYRRFRPYGSNGIYDYWGQGTQVTVSS | high polyreactivity |
| QVQLAESGGGLVQAGGSLRLICAASGFTFSAYAMGWYRQAPGKERELVAAINTSGGSTYYADSVKGRFTISRDNAKNTVYLQMKSLKPEDTAVYYCASKYASLDRRRRKYDYWGQGTQVTVSS | high polyreactivity |
| QVQLAESGGGLVQAGGSLRLSCAASGFILHHYTMGWYRQAPGKERELVAAISRSGGSTYYADSVKGRFTISRDNAKNTVYLQMNSLKPEDTAVYYCAKRVSTYGFSGYDYWGQGSQVTVSS | high polyreactivity |
| QVQLAESGGGLVQAGGSLRLSCAASGRIFYGYTMGWYRQAPGKERELVAAITWSGGSTYYADSVKGRFTISRDNAKNTVYLQMNSLKPKDTAVYYCAATLGNAADYDYGYWGQGTQVTVSS | high polyreactivity |
| QVQLDESGGGLVQAGGSLRLSCAASGHIFFYYTMGWSRQAPRKEREFVAGITIGGSTNYADSVKGRFTISRDNAKYTVYLQKNSLKPEDTAVYYCNVVTYVYIYSYWEYYYWGQGTQVTVSS | low polyreactivity |
| QVQLDESGGGLVQAGGSLRLSCAASGSTFNIYAMGWYRRAPWQERELVAAITRGGSTNYADSVKGRFTISRDNAKNTVYLQMNSLKPEDTAVYYCAARTAYFTSYGRYYYWGQGTQVTVSS | high polyreactivity |
| QVQLEDSGGGLVQAGGSLRLSCAASGFTFGVYAMGWYRQAPGKQRELVAAITSGGGRTYADSVKWRFTISRDNAKNTVYLQMNSLKPEDTAVYYCAAEGVPLRVVWDYSYWDYDYDYWGQGTQVTVSS | low polyreactivity |
| QVQLEDSGGGLVQAGGSLRLSCAASGRIFTRYAMGWYRQAPGKERELVAVITRSGGSTYYADSVKGRFTISRDNAKNTVYLQMNSLKPEDTAVYYCAARYYWSVYADQGDYWGQGTQVTVSS | low polyreactivity |
| QVQLEDSGGGLVQAGGSLRLSCAASGSTISYYTMGWYRQAPGKERELVAAISSGGSTYADSVKGRFTISRDNAKNTVYLQMNSLKPDDTAVYYCAVDGFDYGPSQALDYWGPGTQVTVSS | low polyreactivity |
| QVQLEESAGGLVQAGGSLRLSCAASGSIFAYYAMGWYRQAPGKERELVAVIRSGGSTYYADSVKGRFTISRDNAKNTVYFQMNSLKPEDTAVYYCAARSYRPTRGDYWGQGTQVTVSS | high polyreactivity |
| QVQLEESCGGLVQAGGSLRLSCAAYGRIFGNYAMGWYRQATGKETELVAAITRGSTYYADSVKGRFTISRDNSKNTVYLQMNSLKPEDTAFYYCNARPRVPGVLYLYDYWGQGTQVTVSS | high polyreactivity |
| QVQLEESGAGLVQAGGSLRLCCAASGFTIGYNVMGWYRQAPGKERELVATISWNGARTYYADSVKGRFTISRDNAKNTVYLQMNSLKPEDTAVYYCAARRYYRGEYDYWGQGTKVTVSS | low polyreactivity |
| QVQLEESGGALVQAGGSLRLSCAASGFTFYRNALGWNRQAPGQERELVGAITRGGSTTYADSVKGRFTISRDNAKNTVYLQMNRMKPEDTAVYYCAAPKYIWYRDLNYWGQGTQVTVSS | high polyreactivity |
| QVQLEESGGCLVQAGGSLRLSCAASGFTIRDYTMGWSRQAPGKERELVAPISRSGGSTYYADSVKGRFTISRDNATNTVYLQMYSLKPEDTAVYYFAALWHAVFYADYDYWGQGTQVSVSS | high polyreactivity |
| QVQLEESGGCLVQAGGSLRLSCAASGITFVLYAMGWYRQAPGTERELVAAINIDGNTNYADSVKGRFTISRDNAKNTVYLQMNSLKPEDTAVYYCAATFVPAQSRYTCSKYDYWGQGTQVTVSS | low polyreactivity |
| QVQLEESGGCLVQAGGSLRLSCAASGITFYVYAMGWSRQAPGKERELVAAISSSGGSTYYADSVTGRFTISRDNAKNTGALQMNSLKPEDTAVYYCPADKCFYYGRKYGKYDYWGQGTQVTVSS | high polyreactivity |
| QVQLEESGGGIVQAGGSLRLSCAASGITFRFYAMGWYRPAPGKERELVAAITRSGSSTYYADSVKGRFTISRDNAKNTVYLQMNSLKPEDTAVYYCATDPYWNRPYVKYDYWGQGTLVTVSS | high polyreactivity |
| QVQLEESGGGIVQAGGSLRLSCAASGRIFGYYAMGWYRQAPGKERELVASIRRGTRTNYADSVKGRFTISRDNAKNTVYLQMNSLKPEDTAVYYCAATRFQFTTTPWYDYWGQGTQVTVSS | high polyreactivity |
| QVQLEESGGGIVQAGGSLRLSCAASGRTFYGYAMGWYRQAPGKEREFVAAINERGTSTYYADSVKGRFTISRDNAKNTVYLQMNSLKPEDTAVYYCAARYLRTQYQDGTRSRIQLDYWGQGTQVTVSS | high polyreactivity |
| QVQLEESGGGIVQAGGSLRLSCAASGSIFGGYAMGWYRQAPGKEREFFAAISWTSGRTTYADSVKGRFTISRDYAKNTVYLQMNSLKPEDTAVYNCAKRYGIWYPSYADRGSDYRYGYWGQGTQVTVSS | high polyreactivity |
| QVQLEESGGGIVQAGGSLRLSSAASGRIYTPNAMGSYRQAPGKERELVAAITWSGGSTYYADSVKGRFTISRDNAKNTVYLQMNRLKPEDTAVYYCAVRYSRNLMYYWGQATQVTVSS | high polyreactivity |
| QVQLEESGGGIVQAGRSLRLSCAASGITFDANTMGWYRQAPGKERELVAAITGGGSTNYADSVKGRFTISRDNAKNTVYLHMNSPKPEDTAVYYCPADLIYKYNYWGQGTQVTVSS | low polyreactivity |
| QVQLEESGGGLDQAGGSLRLSCAASGIIFGYYAMGWYIQAPGKQSEFVAAINYSGVSTYYADSVKGRFTISLDNAKNTVYLEMHSLKPEDTAVYYCAAGPYAGVDPGYYYYWGKGTQVTVSS | low polyreactivity |
| QVQLEESGGGLDQAGGSLRLSCAASGSTYAYAMGWYRQAPRKERELVAAITRSGGSTYYADSVKGRFTISRDNAKNTVYLQMNSLKPEDTAVYYCRGKSTTWRGSQMDYWGQGTQVTVSS | high polyreactivity |
